Reference: the DeepSol protein solubility set

Assay: soluble on expression in E. coli; label from the status in PepcDB or PDB records

| Sequence | soluble on expression in E. coli |
| --- | --- |
| MGHHHHHHSHMPKGIALALGLNAVDPKHYGGWAGKLNACEADAEDMAAIAAERGFAVTTLMTKAATRAKVIDAIGKAAKALGKGDIFMLSYSGHGGQVPDTSNDEPDGVDETWCLFDGELIDDELYALLGKFAAGVRVLVFSDSCHSGTVVKMAYYNGTTAARSAGPDEGEIRYRAMPQSVAMRTYRANREFYDTIQQKTKKVDLADVKASILLISGCQDNQLSQDGAFNGAFTGQLLRVWKNGLYKGSYRSFHKAIVRRMPPDQTPNFFTAGTPDPAFLKQRPFTV | soluble |
| MAALTKVKLCQLDDLMPFIGATVLIEGERVALFYIPDSGVYAVQDWDPIGKAYVMSRGIVGDINGEMCVASPLYKQHFSLKSGQCLEDEAHCLKTWRVTVDDNQVCYLAKELEHHHHHH | soluble |
| MYSDSRKRSSDDLIDNSDESKKPKESRNLYCTLAAYGCRKGERADMQDTHIMLPKFDLGTEKSFLSRASFFAIFDGHAGPRAAEHCQSQMGKTVKEKLAKFSDFPTLTKSLKQTFTESYKAVDDGFLAIAKQNKPIWKDGTTATTMIILNNVIYVANIGDSRAVVARKKEDGSFAPVCLTVDHDPMSHDERMRIQKAGAVVKDGRINGVIEVSRSIGDLPFKSLGIISTPDLKKLTLTKNDL | not soluble |
| MGSDKIHHHHHHMQQHPVVSREEWLVKRRALLAREKEAIHQRDAITAERLALPWVKVDTRYVFDTASGKKTLADLFDGRSQLMIYHFMLGPGWAAGCPGCSLVADHLGGTLAHLNHHDVTLIAVSRAPLPEIEAYRQRMGWQFPWASSFGTTFNHDFRVSFTPDELASGAVDYNYTSTQSAQANDELPGLSAFYKDAAGNVYHTYSTYARGLEDLIGTFLILDRAPKGRNESGPMEWVRRHDEYGDAPKANACYEG | not soluble |
| MSTVVDRLQRMTLNLTSPDGNLCATVDAERRARFHLRDETRFERYDAPTLSTQVKALLTTMNSGRELGIKRAYAADGREPAAVNGTHWDAAHRRFEAALATLELEGYSEDGLLLLQSGFDLSGYRVTIDRDDLPRTSPEQFLRELSGAYRDLLAHRRQRRAELLREHLGT | not soluble |
| GILAEAHGTRPDLTDQPLPDADHTWYTDGSSLLQEGQRKAGAAVTTETEVIWAKALPAGTSAQRAELIALTQALKMAEGKKLNVYTDSRYAFATAHLTSEGKEIKNKDEILALLKALFLPKRLSIIHCPGHQKGHSAEARGNRMADQAARKAAITETPDTSTLL | soluble |
| MGSDKIHHHHHHESGDIITSDQMDEVDPVAGLNGMYAYLYKFDTMGYGDEAQHYDYGYHHILLCSDLWGQDMIQYSSKYGWYYTDYQFNQNSRAYQYISTFYFWNYLYKLIKSANDVLKTTTDDSKKEDRGQALGMRAFAYLTLVQMYQHTYAGHENAPAVPIVLETTEPDVLSNNPRASVKEVYDLIEKDLVQAHSDLSSYQRLNSTYIDQTVISGLLARMYLLKEDWTNAAKYAKEARASYGAPADKAELIDEGYIDMNKHHTWMFTSHITTDAEIVQTGIVNFISHISSTAYGYVTAGGMFKNISSELYSKIADNDIRKGWFADKDFTYEGGPMGSVALPKYANLKYMWYDLEGNNCNDLCYMRAEEMWLIEAEALAMGGNIAGGKSLLEEFVKTRQPDYVCDATDAKGIQDACWLQRRIEFWGEGIAWFDLKRLKKPIIRKYEGTNHNLDAQYDFPAEDDIFRILIPRKEIQDNNGIGEEDNNPMPNI | not soluble |
| MAYEEHFQQTSEAKYDCLLFDIDDTLYPLSSGLAMEVKKNIQEYMVQKLGIEEDKVQELCLSLYKIYGTTMAGLKAVGYDFDYDDFHRFVHGRLPYSTLKPDPILRNIILSLPIRKVVFTNADKAHAAKIIARLGLEGCFEKIISFETLNPITKTESPVDTKTREIFDIISYMANPDSSIELPKTSVVCKPSEGAFEQVFKMANINPKKTLFFDDSIRNIQTGKRVGLHTVWVGTSHREEGVDIALEHIHNIREALPQLWDAVDDKAKEIRTRQKVAIETIA | not soluble |
| MDTNWLYVLLQKSTADPLERLKLGNVILNEVSQRKVSPHPKLVNDFLDVMSGWLTGSNFKVSTIGLEILDAALRTSPDVLASYYFDRCSVLIERMGDAKVQVREMAINLCLQLAYLENSSPVMLLDRLCVPGTGFQHKQWLVKVGSLNILREFLSSSFALVIQQAITLIPQLCRLTNDPNSEVRDVSTQCLIDLMVYGGKPIVAKIAATRLINEQKMATLLQRYQTTVATRGDLPPKHTITMETTPAQPSRNSLLRRSLRSPAKIIHPSASTTSFTSSARLSTPPRPTTTAAQSLSLAPQTPSPLSLPSPSGGQMSRSRDLTRSSLRAPAGISISRYRSSSCAPAAQCAITLDDFKKSFTAVPKTTIYSNHDIREKLELANLVLRNANEDWSKRANQLKLIRSIIINCDENIDRSLLISIINELADALEFSIRDLRSQIVREAAVTCSFLFETFGMEVKNVAECVLPAALAQVAVSTKVIASSAATLTVFIVQKIQTRQIFTTLSELSSSKAKEQRRQLAVVLETLIASWDLKSKQPILKQIAQLVQNAICDADGETRVAGRKAFAKLEQLHGTTADLIFRELDPAKQKMLRDGVSSSSSSLNSDRDNNNQKQQPNQQNISQKFLSQRSASAVDKSIQLSVKPQTTAIPSRPTAMPMNNRLPKSSTSTSFSAVRSSGYGQNQSTTPNRAKTPSDGFAGSSPHYTNGNNNNKSSSSSPSTSTHQTPIQRVASNLGSSSFVASLTQEQANCLQNAMNTAKDEMSKNNEDDEFLLDEIRKTPPKEVPRSYNNSPFKPSNLDSSVHRSYNNNSPFRPSSGSVGSGSNGSVQSIEHILKACTSSSLNEKRDAIVNLNQVITDPNLCQLECKNIGDTLSRLLAEGNNTLIISILDTISIFIKFQYKKLDNWLKLALGKLFAKMGADALPNVKSALSSTQKMFLTTFDPTFQLKAVCDFMCDPVHLLSPKSRLALLEYICLLFEEIWPEDPRCLERQTHLDTPYTRAAIRKMFAWMFDPRIGAILMPACERLVCALFALNAADFTMIFGELPSECRDWAYRILQLNGQQNNQKPIEKEKERFISNNNYKPCPLDNEEIEKPIMKTTYSTYESTRKEYSQTERIATENQYSTPPPPDYRTSTAHLAKNHVDQAAYIRNQLDAIRDFEKADKLNEAMANLHGMMCEGSFTLWNQFFDELLDSIYQILSTFSQSIRKKLALRILQKMCTAQATKLFDSTEIAISKVLQCACTSDDNTMGVAAEDCLRILASHLPLTRVVLISRRILSQDDDDQRGVLILKMLTRMFQDIDIEELHLIVNDVAPCFVTAYESMSSTVRKCAVFGLVALVQRVGMQRMEPHLRTLNASKLNLIDLYVGRAKSSESGASSN | not soluble |
| MSLCQEKEQDIQKEISYAEKHNNQRRIEGLNKALSEVRANCTDSKLRAEHQKKIAEQKEEVAERQRDLAEAKAKGDADKIDKRERKLAEAQDELKKLEHHHHHH | not soluble |
| MGSDKIHHHHHHMSWNSFGNFMSARSSALAEFGNMVANLVSAKNEKDISKRNEYYKQAGYSALLAFGNLASNIAPGSTSSHIVNGTNASVIASRLSGNISSAIQEHKDGKVNINRFQNILADLYSLGGLGSTLIEKNGNMQSWGIPLAIAGDIIAATAIATGDTGTISTEEFYNFDNWKGFGYELFEDWSRWVYDWLPDGWNLWKELDRNRCWILTERDGRRQFKWLGKPDPTRGWFDNGHECLKPWGNIFDSYRRGKYHVYDPLALDLDGDGIETVATKGFSGALFDHRNQGIRTATGWVSADDGLLVRDLNGNGIIDNGAELFGDNTKLADGSFAKHGYAALAELDSNGDNIINAADAAF | not soluble |
| MSEEKIYDVIIIGAGPAGMTAAVYTSRANLSTLMLERGIPGGQMANTEDVENYPGYESILGPDLSNKMFEHAKKFGAEYAYGDVKEVIDGKEYKTIIAGKKEYKARAIIVASGAEYKKIGVPGETELGGRGVSYCAVCDGAFFKGKELVVIGGGDSAVEEGVFLTRFASKVTIVHRRDTLRAQKILQDRAFQNEKVDFIWNHTIKEINEANGKVGSVTLVDVNSGEEKEVKTDGVFVYIGMLPLSKPFVELGITNENGYLETNERMETKVPGIFAAGDVREKMLRQIVTATGDGSIAAQSAQHYVEELLEELKTVSEK | not soluble |
